Experimental data from US20030175273A1 (Kyowa Kirin, published 2003).
Where a chain is given by its changes, count along the chain named. Values belong to the binder of their own block, whether it stands above or below them. Ends that are not written are not given here.

Experiments:
[1] = target: T1, BSA-Compound 1 (human CCR4 extracellular region peptide Compound 1 conjugated with BSA) (human, also: conjugated to BSA through SMCC, site not given here); assay: ELISA on BSA-Compound 1, purified antibody
T1 construct: the claims speak of positions 13 to 29; ELISA antigen; also called CCR4 partial peptide
T1 peptide: DESIYSNYYLYESIPKPC

[2] = target: T2, biotinylated Compound 1 (biotinylated CCR4 partial peptide) (human, also: biotinylated, site not given here); assay: BIAcore 2000, biotinylated Compound 1 on sensor tip SA, antibody at 4 µg/ml
T2 construct: Same peptide as in BSA-Compound 1
T2 peptide: DESIYSNYYLYESIPKPC
Method: In order to measure the binding activity in more detail, the binding activity of various purified antibodies was measured using BIAcore 2000 (manufactured by BIACORE) as follows. In this case, HBS-EP (manufactured by BIACORE) was used as the buffer for diluting samples and for the measurement. First, 5 μl of 0.05 μg/ml solution of Compound 1 as a biotinylated CCR4 partial peptide was added to a sensor tip SA (manufactured by BIACORE) at a flow rate of 5 μl/minute and immobilized on the sensor tip.
To the prepared biotinylated compound 1 -immobilized sensor tip, 20 μl of 4 μg/ml solution of each of the purified antibodies was added at a flow rate of 5 μl/minute, and after completion of the addition, the dissociation reaction was monitored for 4 minutes and then the sensor tip surface was regenerated by adding 5 μl of 10 mM HCl twice. In this way, a binding reaction curve (sensorgram) for Compound 1 was obtained.

[3] = target: T3, human CC chemokine receptor 4 (CCR4) on CCR4/EL-4 cells (human, UniProt P51679 1-360); assay: flow cytometry on CCR4/EL-4 cells, antibody at 10 µg/ml
T3 construct: also called hCCR4; human CCR4-high-expressing cell
T3 sequence: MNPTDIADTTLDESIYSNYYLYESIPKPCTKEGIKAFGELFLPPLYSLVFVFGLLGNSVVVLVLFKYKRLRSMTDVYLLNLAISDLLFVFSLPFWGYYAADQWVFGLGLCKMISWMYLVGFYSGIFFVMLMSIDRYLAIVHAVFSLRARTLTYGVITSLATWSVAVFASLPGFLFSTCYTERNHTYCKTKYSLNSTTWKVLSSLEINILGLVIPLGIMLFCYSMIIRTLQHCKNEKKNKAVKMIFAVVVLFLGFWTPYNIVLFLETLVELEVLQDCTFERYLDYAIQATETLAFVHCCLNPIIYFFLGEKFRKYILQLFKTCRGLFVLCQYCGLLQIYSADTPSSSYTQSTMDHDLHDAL
Method: Into a 96 well plate, 2×10⁵ or more of CCR4/EL-4 cells, CCR4-high-expressing cells obtained in Reference Example 3, were dispensed. An antibody solution was prepared by diluting each of the purified antibodies and a human immunoglobulin (manufactured by Welfide) for preventing nonspecific staining to give concentrations of 10 μg/ml and 3.75 mg/ml, respectively, with a buffer for FACS, and the antibody solution was added at 100 μl/well and allowed to react for 30 minutes in ice. As a negative control, 10 μg/ml of an anti-human IL-5 receptor a chain antibody (WO 97/10354) was used. After washing twice with 200 μl/well of the buffer for FACS, a PE-labeled anti-human IgG antibody (manufactured by Coulter) diluted 100 times was added at 50 μl/well. After the reaction in ice under shading and subsequent washing three times with 200 μl/well of the buffer for FACS, the reaction product was suspended in 500 μl of the buffer for FACS and the fluorescence intensity was measured using a flow cytometer.

[4] = target: T1, BSA-Compound 1 (human CCR4 …); assay: ELISA on BSA-Compound 1, COS-7 culture supernatant
Method: Into a 96 well ELISA plate (manufactured by Greiner), 0.05 μg/ml of the prepared conjugate was dispensed in at 50 μl/well and allowed to stand at 4° C. overnight for adsorption. After washing with PBS, PBS containing 1% BSA (hereinafter referred to as “1% BSA-PBS”) was added thereto at 100 μl/well and allowed to react at room temperature for 1 hour to block the remaining active groups. After washing each well with PBS containing 0.05% Tween 20 (hereinafter referred to as “Tween-PBS”), a culture supernatant of the transformant was added at 50 μl/well and allowed to react at room temperature for 1 hour. After the reaction and subsequent washing of each well with Tween-PBS, a peroxidase-labeled goat anti-human IgG(γ) antibody solution (manufactured by American Qualex) diluted 6,000 folds with 1% BSA-PBS was added as a secondary antibody solution in 50 μl/well portions and allowed to react at room temperature for 1 hour After the reaction and subsequent washing with Tween-PBS, an ABTS substrate solution (a solution prepared by dissolving 0.55 g of […] ammonium in 1 liter of 0.1 M citrate buffer (pH 4.2) and adding 1 μl/ml hydrogen peroxide just before use) was added at 50 μl/well to develop color, and the reaction was stopped 20 minutes thereafter by adding 5% SDS solution at 50 μl/well. Thereafter, absorbance at 415 nm was measured.

B1: anti-CCR4 CDR-grafted antibody Ga10LV1 (antibody, human IgG1, V domains shown)
VH: EVQLVESGGDLVQPGRSLRLSCAASGFIFSNYGMSWVRQAPGKGLEWVATISSASTYSYYPDSVKGRFTISRDNAKNSLYLQMNSLRVEDTALYYCARHSDGNFAFGYWGQGTLVTVSS
VL: DVVMTQSPLSLPVTPGEPASISCRSSRNIVHINGDTYLEWYLQKPGQSPQLLIYKVSNRFSGVPDRFSGSGSGTDFTLKISRVEAEDVGVYYCFQGSLLPWTFGQGTKVEIK
notes: Tested as COS-7 supernatant and as purified antibody from YB2/0; also called pKM2160Ga10LV1
- binding result [1]: binds
- binding result [2]: binds
- binding result [3]: binds

B2: anti-CCR4 CDR-grafted antibody Ga10LV0 (antibody, human IgG1, V domains shown)
VH: B1 VH
VL: B1 VL with V2I
notes: CDR alone grafted; Tested as COS-7 supernatant and as purified antibody from YB2/0; also called pKANTEX2160Ga10LV0; pKM2160Ga10LV0
- binding result [4]: binds
- binding result [2]: binds
- binding result [3]: binds

B3: anti-CCR4 CDR-grafted antibody Ga10LV3 (antibody, human IgG1, V domains shown)
VH: B1 VH
VL: B1 VL with V3L
notes: Tested as COS-7 supernatant and as purified antibody from YB2/0; also called pKM2160Ga10LV3
- binding result [1]: binds
- binding result [2]: binds
- binding result [3]: binds

B4: anti-CCR4 CDR-grafted antibody Ga11LV1 (antibody, human IgG1, V domains shown)
VH: B1 VH with A97G
VL: B1 VL
notes: Tested as COS-7 supernatant and as purified antibody from YB2/0; also called pKM2160Ga11 LV1
- binding result [1]: binds
- binding result [2]: binds
- binding result [3]: binds

B5: anti-CCR4 CDR-grafted antibody Ga11LV3 (antibody, human IgG1, V domains shown)
VH: B1 VH with A97G
VL: B1 VL with V3L
notes: Tested as COS-7 supernatant and as purified antibody from YB2/0; also called pKANTEX2160Ga11LV3; antibody of producing cell KM8760 (FERM BP-8130)
- binding result [1]: binds
- binding result [2]: binds
- binding result [3]: binds

B6: anti-CCR4 CDR-grafted antibody Ga12LV1 (antibody, human IgG1, V domains shown)
VH: B1 VH with G42D, G44R
VL: B1 VL
notes: Tested as COS-7 supernatant and as purified antibody from YB2/0; also called pKM2160Ga12LV1
- binding result [1]: binds
- binding result [2]: binds
- binding result [3]: binds

B7: anti-CCR4 CDR-grafted antibody Ga12LV3 (antibody, human IgG1, V domains shown)
VH: B1 VH with G42D, G44R
VL: B1 VL with V3L
notes: Tested as COS-7 supernatant and as purified antibody from YB2/0; also called pKANTEX2160Ga12LV3; antibody of producing cell KM8759 (FERM BP-8129)
- binding result [1]: binds
- binding result [2]: binds
- binding result [3]: binds

B8: anti-CCR4 CDR-grafted antibody Ga13LV1 (antibody, human IgG1, V domains shown)
VH: B1 VH with G42D, G44R, A97G
VL: B1 VL
notes: Tested as COS-7 supernatant and as purified antibody from YB2/0; also called pKM2160Ga13LV 1
- binding result [4]: binds
- binding result [2]: binds
- binding result [3]: binds

B9: anti-CCR4 CDR-grafted antibody Ga13LV3 (antibody, human IgG1, V domains shown)
VH: B1 VH with G42D, G44R, A97G
VL: B1 VL with V3L
notes: Tested as COS-7 supernatant and as purified antibody from YB2/0; also called pKM2160Ga13LV3
- binding result [4]: binds
- binding result [2]: binds
- binding result [3]: binds

B10: anti-CCR4 CDR-grafted antibody HV1LV1 (antibody, human IgG1, V domains shown)
VH: B1 VH with D10G, R16G, A49S, A75S, S78T, V88A, L93V
VL: B1 VL
notes: Tested as COS-7 culture supernatant only; also called pKM2160HV1LV1
- binding result [4]: binds

B11: anti-CCR4 CDR-grafted antibody Ga10LV2 (antibody, human IgG1, V domains shown)
VH: B1 VH
VL: B1 VL with V2I, V3L
notes: Tested as COS-7 culture supernatant only; also called pKM2160Ga10LV2
- binding result [4]: binds

B12: anti-CCR4 CDR-grafted antibody HV0LV0 (antibody, human IgG1, V domains shown)
VH: B1 VH with D10G, R16G, I28T, A49S, A75S, S78T, V88A, L93V
VL: B1 VL with V2I
notes: Tested as COS-7 culture supernatant only; also called pKM2160HV0LV0
- binding result [4]: binds

B13: anti-CCR4 CDR-grafted antibody HV0LV1 (antibody, human IgG1, V domains shown)
VH: B1 VH with D10G, R16G, I28T, A49S, A75S, S78T, V88A, L93V
VL: B1 VL
notes: Tested as COS-7 culture supernatant only; also called pKM2160HV0LV1
- binding result [4]: binds

Further lines, results first:

- binding result [4]: binds
B14: anti-CCR4 CDR-grafted antibody HV0LV2 (antibody, human IgG1, V domains shown)
VH: B1 VH with D10G, R16G, I28T, A49S, A75S, S78T, V88A, L93V
VL: B1 VL with V2I, V3L
notes: Tested as COS-7 culture supernatant only; also called pKM2160HV0LV2

- binding result [4]: binds
B15: anti-CCR4 CDR-grafted antibody HV0LV3 (antibody, human IgG1, V domains shown)
VH: B1 VH with D10G, R16G, I28T, A49S, A75S, S78T, V88A, L93V
VL: B1 VL with V3L
notes: Tested as COS-7 culture supernatant only; also called pKM2160HV0LV3

- binding result [4]: binds
B16: anti-CCR4 CDR-grafted antibody HV1LV0 (antibody, human IgG1, V domains shown)
VH: B1 VH with D10G, R16G, A49S, A75S, S78T, V88A, L93V
VL: B1 VL with V2I
notes: Tested as COS-7 culture supernatant only; also called pKM2160HV1LV0

- binding result [4]: binds
B17: anti-CCR4 CDR-grafted antibody HV1LV2 (antibody, human IgG1, V domains shown)
VH: B1 VH with D10G, R16G, A49S, A75S, S78T, V88A, L93V
VL: B1 VL with V2I, V3L
notes: Tested as COS-7 culture supernatant only; also called pKM2160HV1LV2

- binding result [4]: binds
B18: anti-CCR4 CDR-grafted antibody HV1LV3 (antibody, human IgG1, V domains shown)
VH: B1 VH with D10G, R16G, A49S, A75S, S78T, V88A, L93V
VL: B1 VL with V3L
notes: Tested as COS-7 culture supernatant only; also called pKM2160HV1LV3

- binding result [4]: binds
B19: anti-CCR4 CDR-grafted antibody HV2LV0 (antibody, human IgG1, V domains shown)
VH: B1 VH with D10G, R16G, I28T, A49S, A75S, S78T, V88A, L93V, A97G
VL: B1 VL with V2I
notes: Tested as COS-7 culture supernatant only; also called pKM2160HV2LV0

- binding result [4]: binds
B20: anti-CCR4 CDR-grafted antibody HV2LV3 (antibody, human IgG1, V domains shown)
VH: B1 VH with D10G, R16G, I28T, A49S, A75S, S78T, V88A, L93V, A97G
VL: B1 VL with V3L
notes: Tested as COS-7 culture supernatant only; also called pKM2160HV2LV3

- binding result [4]: binds
B21: anti-CCR4 CDR-grafted antibody HV3LV0 (antibody, human IgG1, V domains shown)
VH: B1 VH with D10G, R16G, A49S, A75S, S78T, V88A, L93V, A97G
VL: B1 VL with V2I
notes: Tested as COS-7 culture supernatant only; also called pKM2160HV3LV0

- binding result [4]: binds
B22: anti-CCR4 CDR-grafted antibody HV3LV3 (antibody, human IgG1, V domains shown)
VH: B1 VH with D10G, R16G, A49S, A75S, S78T, V88A, L93V, A97G
VL: B1 VL with V3L
notes: Tested as COS-7 culture supernatant only; also called pKM2160HV3LV 3
